Reference: patent US6342368B1, “WD-40-derived peptides and uses thereof” (The Board of Trustees of the Leland Stanford Junior …, priority 1994, dated 2002)
One block for each molecule: values may come before it.

Assays:
RACK1 = target: T1, RACK1 (Rattus norvegicus, UniProt P63245); experiment: Overlay assay: concentration dependence of PKC binding to recombinant RACK1; settings: βPKC in the presence of other PKC isozymes, n=3
T1 construct: an open reading frame of 317 amino acids from the putative translation start site of pRACK1; made in house; host or cells: TB1 E. coli (RACK1); PKC mixture from rat brain
Protocol: Purified recombinant RACK1 protein (100-250 μg per lane, produced as detailed in Example 2) was subjected to SDS/PAGE and blotted onto nitrocellulose membranes (Ausubel). The nitrocellulose membranes were cut into strips, which were incubated for 0.5 hr in overlay buffer (Example 1) in the presence or absence of a mixture of PKC isozymes (α, β, γ, δ, ε and ζ, ˜10 nM each final concentration) and PKC activators (60 μg/ml phosphatidylserine (PS), 2 μg/ml diacylglycerol (DG), and 1 mM CaCl2). Unbound material was removed by five washes, 5-min each, in overlay wash buffer. Where indicated, PKC activators were present during the incubation of PKC with the nitrocellulose strips. The conditions for each sample and corresponding results are presented in part D below.
PKC bound to RACK1 immobilized on nitrocellulose strips was detected as follows. […]
The concentration dependence of PKC binding to RACK1 was characterized with βPKC , since this isozyme is a major component of the PKC mixture used for the overlay assay. The mean half maximal binding was ˜0.375 nM, and maximal binding was ˜4 nM (n=3; values reflect binding of βPKC isozyme in the presence of other PKC isozymes and was determined by scanning autoradiograms in the linear range of detection, as described in Mochly-Rosen, et al., (1991).

[1] = target: mixture of rat brain PKC isozymes (α, β, γ, δ, ε and ζ) (rat); experiment: cell-based or functional assay
[2] = target: mixture of rat brain PKC isozymes (α, β, γ, δ, ε and ζ) (rat); experiment: overlay plus overlay-extraction assay; 10 µM peptide preincubated with PKC isozyme mixture (~10 nM each); immobilized RACK1
[3] = target: T2, βPKC (rat brain protein kinase C, β isozyme) (rat, UniProt P68403 2-671); experiment: slot-blot PKC overlay of immobilized peptide, with PS, DG and calcium, anti-βPKC detection
T2 construct: also called beta PKC; βPKC isozyme

- maximal binding to RACK1 (RACK1): ~4 nM
- Kd (RACK1; read-out: mean half maximal binding to RACK1): ~0.375 nM
Molecule: βPKC: β isozyme of protein kinase C, major component of the rat brain PKC mixture

- PKC autophosphorylation in the absence of PKC activators [1]: > 80%
Molecule: DIINALCF [peptide rVI]

More lines, now with the values behind:

Molecule: KGDYEKILVALCGGN [peptide I]
- % inhibition of PKC binding to recombinant RACK1 [2]: 81%

Molecule: LKGKIL [control peptide]
- binding result [3]: no binding
